Drawing on publication doi:10.1101/2020.12.17.423260, this text covers Kd for one molecule.

The target in this data set is 3Dpol-WT (RNA-dependent RNA polymerase) (Foot-and-mouth disease virus, UniProt P03305 1863-2332). The data set can be described thus: fluorescence polarisation anisotropy.
3Dpol-WT (RNA-dependent RNA polymerase), sequence (P03305 1863-2332): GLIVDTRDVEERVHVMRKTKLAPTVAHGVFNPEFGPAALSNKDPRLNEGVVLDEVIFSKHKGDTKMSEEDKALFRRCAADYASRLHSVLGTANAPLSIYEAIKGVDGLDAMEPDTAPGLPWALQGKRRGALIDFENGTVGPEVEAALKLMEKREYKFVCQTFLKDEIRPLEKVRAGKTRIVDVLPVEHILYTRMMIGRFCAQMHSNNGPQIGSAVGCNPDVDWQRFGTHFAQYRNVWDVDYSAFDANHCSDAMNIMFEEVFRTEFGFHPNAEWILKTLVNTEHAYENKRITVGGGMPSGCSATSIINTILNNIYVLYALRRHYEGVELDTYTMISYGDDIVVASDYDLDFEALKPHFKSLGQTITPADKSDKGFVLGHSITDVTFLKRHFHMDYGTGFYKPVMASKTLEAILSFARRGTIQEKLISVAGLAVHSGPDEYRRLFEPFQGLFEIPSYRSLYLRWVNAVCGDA

Molecule AAAAAAAAAAAAA (ssRNA) [13mer poly-A RNA] gave a dissociation constant (Kd) of 5.83 ± 1.3 µM.

In general, Kd refers to the free concentration of one partner at which half of the binding sites on the other are occupied at equilibrium, for simple one-to-one binding. A higher Kd goes with weaker binding.
